Key:
[1] = target: T1, MLO-Y4 cell surface proteins (Mus musculus, UniProt P09671); test: Crosslinking/co-immunoprecipitation/mass spectrometry (TMT quantitative proteomics) to identify irisin receptors; format: binding; settings: co-precipitated protein Sod2 (SODM_MOUSE)
T1 construct: endogenous in cells; host or cells: MLO-Y4
T1 sequence (P09671 25-222): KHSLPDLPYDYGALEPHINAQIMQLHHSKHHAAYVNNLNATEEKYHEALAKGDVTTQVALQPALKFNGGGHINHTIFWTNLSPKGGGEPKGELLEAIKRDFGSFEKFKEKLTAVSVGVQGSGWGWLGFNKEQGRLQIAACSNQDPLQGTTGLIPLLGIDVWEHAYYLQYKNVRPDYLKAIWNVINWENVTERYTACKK
How it was run: (§1)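 Relative protein abundance came from 6-plex TMT MS3 quantitation on an Orbitrap Fusion Lumos, after in-gel trypsin digestion of Coomassie-stained SDS-PAGE lanes. Input was a Ni-NTA pulldown (250 mM imidazole elution) of lysates from murine MLO-Y4 cells. These cells were treated on ice with His-tagged irisin or adipsin (10 nM, 20 min) in serum-free medium, then crosslinked with 1.5 mM DTSSP for 30 min.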

[2] = target: T2, MLO-Y4 cell surface proteins (Mus musculus, UniProt E9Q9D8); test: as above; format: binding; settings: co-precipitated protein Ankrd35 (E9Q9D8_MOUSE)
T2 construct: endogenous in cells; host or cells: MLO-Y4
T2 sequence (E9Q9D8 1-996): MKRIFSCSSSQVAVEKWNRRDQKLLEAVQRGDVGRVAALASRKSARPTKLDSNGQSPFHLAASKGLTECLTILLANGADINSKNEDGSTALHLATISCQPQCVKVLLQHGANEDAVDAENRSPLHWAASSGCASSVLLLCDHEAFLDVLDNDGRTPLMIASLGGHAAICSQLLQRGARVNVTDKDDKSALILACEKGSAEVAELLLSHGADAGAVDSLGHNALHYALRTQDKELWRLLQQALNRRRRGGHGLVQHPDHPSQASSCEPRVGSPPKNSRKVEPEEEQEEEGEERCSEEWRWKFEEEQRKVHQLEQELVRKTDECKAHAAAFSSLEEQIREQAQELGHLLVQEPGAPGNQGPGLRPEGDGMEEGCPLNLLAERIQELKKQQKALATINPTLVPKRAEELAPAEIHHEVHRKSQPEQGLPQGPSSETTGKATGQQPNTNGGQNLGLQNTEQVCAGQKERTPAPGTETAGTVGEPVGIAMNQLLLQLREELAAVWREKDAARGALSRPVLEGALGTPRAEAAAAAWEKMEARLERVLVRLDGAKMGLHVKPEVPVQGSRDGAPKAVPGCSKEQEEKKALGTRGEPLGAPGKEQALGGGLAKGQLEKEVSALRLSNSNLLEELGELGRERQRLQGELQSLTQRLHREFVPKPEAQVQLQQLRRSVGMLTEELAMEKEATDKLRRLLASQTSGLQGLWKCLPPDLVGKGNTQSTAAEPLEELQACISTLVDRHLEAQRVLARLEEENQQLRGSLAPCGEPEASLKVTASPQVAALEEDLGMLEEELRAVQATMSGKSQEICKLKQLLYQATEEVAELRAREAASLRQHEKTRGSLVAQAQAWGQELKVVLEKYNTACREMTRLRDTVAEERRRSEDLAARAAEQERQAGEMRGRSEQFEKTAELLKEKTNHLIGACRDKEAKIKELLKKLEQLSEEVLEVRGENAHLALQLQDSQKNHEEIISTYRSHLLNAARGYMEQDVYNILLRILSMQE
How it was run: as §1

adipsin
TMT signal-to-noise ratio [1]: 1031.93
TMT signal-to-noise ratio [2]: 314.798

Reference: patent US20210063414A1, “METHODS FOR PREVENTING AND/OR TREATING BONE LOSS CONDITIONS BY MODULATING IRISIN” (Dana-Farber Cancer Institute, Inc., priority 2018, published 2021)
